Consider one substance from patent publication US8114627.

Data set [1] deals with [Leu1, Thr2]-63-desulfo-hirudin (Lepirudin (Refludan)) (UniProt P01050).
Data set [2] has as its target sulfo-hirudin ([Leu1, Thr2]-hirudin with sulfotyrosine at position 63, expressed in E. coli) (UniProt P01050).

For the substance human α-thrombin (Diapharma), the “cleavage of the fluorogenic substrate by thrombin (fluorescence intensity over time)” value in data set [1] is “Cleavage of the fluorogenic substrate by thrombin, whose activity is inhibited to different degrees by sulfo-hirudin and desulfo-hirudin”; in data set [2], “Cleavage of the fluorogenic substrate by thrombin, whose activity is inhibited to different degrees by sulfo-hirudin and desulfo-hirudin”.
